Laboratory results reported in paper PMC10672168, “Invasive Staphylococcus epidermidis uses a unique processive wall teichoic acid glycosyltransferase to evade immune recognition” (Science Advances, 2023).

Legend:
[1] = target: TarM(Se), WTA glycosyltransferase TarM of S. epidermidis, wild type (S. epidermidis); assay: crystal structure
[2] = target: TarM(Se), WTA glycosyltransferase TarM of S. epidermidis, wild type (S. epidermidis); assay: SEC; Superdex 200 increase 10/30, calibrated column; buffer D: 20 mM triethanolamine pH 7.8 (TarM(Se)_(G117R)) or 8.5 (TarM(Se) and mutant proteins), 250 mM LiCl, 10 mM β-mercaptoethanol, 5% glycerol
[3] = target: TarM(Se) Q265A mutant (S. epidermidis); assay: as above
[4] = target: TarM(Se) N9A mutant (S. epidermidis); assay: as above
[5] = target: TarM(Se) N203A mutant (S. epidermidis); assay: as above
[6] = target: TarM(Se) K233A mutant (S. epidermidis); assay: as above
TarM(Se) = conditions: 30 mM ligand; acceptor site; only two RboP units and one phosphate ordered; monomeric mutant
[7] = target: TarM(Se) E10A mutant (S. epidermidis); assay: SEC; Superdex 200 increase 10/30, calibrated column; buffer D: 20 mM triethanolamine pH 7.8 (TarM(Se)_(G117R)) or 8.5 (TarM(Se) and mutant proteins), 250 mM LiCl, 10 mM β-mercaptoethanol, 5% glycerol
[8] = target: TarM(Se) N255A mutant (S. epidermidis); assay: as above

Compound: TarM(Se), WTA glycosyltransferase TarM of S. epidermidis, wild type (enzyme)
- stoichiometry N [1]: 3
- stoichiometry N [2]: 3

Compound: TarM(Se) Q265A mutant (enzyme)
- stoichiometry N [3]: 3

Compound: TarM(Se) N9A mutant (enzyme)
- stoichiometry N [4]: 3

Compound: TarM(Se) N203A mutant (enzyme)
- stoichiometry N [5]: 3

Compound: TarM(Se) K233A mutant (enzyme)
- stoichiometry N [6]: 3

Compound: NCCCCCCOP(=O)(O)OC[C@@H](O)[C@@H](O)[C@@H](O)COP(=O)(O)OC[C@@H](O)[C@@H](O)[C@@H](O)COP(=O)(O)OC[C@@H](O)[C@@H](O)[C@@H](O)COP(=O)(O)OC[C@@H](O)[C@@H](O)[C@@H](O)CO [4RboP-(CH2)6NH2]
- X-ray crystal structure (cocrystallization) (TarM(Se)): The 4RboP-(CH2)6NH2 compound was introduced into the TarM(Se)G117R crystals through cocrystallization

Compound: TarM(Se) E10A mutant (enzyme)
- stoichiometry N [7]: 3

Compound: TarM(Se) N255A mutant (enzyme)
- stoichiometry N [8]: 3
